Assay results: patent US20250352661A1 (MYTHIC THERAPEUTICS, published 2025)
Substitutions are numbered along the chain they refer to. In names and notes the source's numbering stands.

T1: Human LRRC15 Protein, His Tag (Acro Biosystems) (human, UniProt Q8TF66 22-538, limits assumed)
T1 construct: Bought protein with His tag
T1 sequence (looked up): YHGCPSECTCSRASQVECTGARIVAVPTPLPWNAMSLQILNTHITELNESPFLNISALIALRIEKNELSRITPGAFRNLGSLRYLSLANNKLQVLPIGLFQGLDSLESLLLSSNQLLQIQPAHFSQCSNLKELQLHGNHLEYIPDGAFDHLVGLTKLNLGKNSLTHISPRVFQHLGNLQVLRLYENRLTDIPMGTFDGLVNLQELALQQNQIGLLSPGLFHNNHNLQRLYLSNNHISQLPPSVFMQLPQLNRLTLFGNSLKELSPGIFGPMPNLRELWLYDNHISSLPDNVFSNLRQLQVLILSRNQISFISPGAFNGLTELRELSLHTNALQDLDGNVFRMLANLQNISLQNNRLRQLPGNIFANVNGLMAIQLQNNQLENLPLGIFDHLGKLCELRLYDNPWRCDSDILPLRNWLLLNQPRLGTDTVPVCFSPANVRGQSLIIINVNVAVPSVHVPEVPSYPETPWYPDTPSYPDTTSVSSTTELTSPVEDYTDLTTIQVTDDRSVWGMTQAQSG

T2: Human LRRC15 Protein, His Tag (Acro Biosystems) (human, UniProt Q8TF66 22-538, limits assumed)
T2 construct: not shown: His tag
T2 sequence (looked up): T1 sequence (looked up)

B1: MYT8387 (antibody, V domains shown)
VH: EVQLVESGGGLVQPGGSLRLSCTASGLDFRRTNHICWVRQAPGKGLEWVGCIYIADVVHYYASWAKGRFTFSRDTSKNTVYLQMNSLRAEDTAVYYCARGADGGFVYGMDLWGQGTLVTVSS
VL: EIVMTQSPSTLSASVGDRVIITCQASQSIGNYLSWYQQKPGKAPKRLIYSASTLPSGVPSRFSGSGSGAEFTLTISSLQPDDFATYYCQNNYWLAGYGHPFGQGTKLTVL
notes: hu15G7 VH Y34H; human Fc
B2: MYT8410 (antibody, V domains shown)
VH: B1 VH with H34Y, Y53H, F105H, V106H
VL: B1 VL
notes: hu15G7 VH Y53H, F105H, V106H; human Fc
B3: MYT8403 (antibody, V domains shown)
VH: B1 VH with Y53H, F105H
VL: B1 VL
notes: hu15G7 VH Y34H, Y53H, F105H; human Fc
B4: MYT8408 (antibody, V domains shown)
VH: B1 VH with H34Y, Y53H, G104H, F105H
VL: B1 VL
notes: hu15G7 VH Y53H, G104H, F105H; human Fc
B5: MYT8400 (antibody, V domains shown)
VH: B1 VH with H34Y, G104H, V106H
VL: B1 VL
notes: hu15G7 VH G104H, V106H; human Fc
B6: MYT8406 (antibody, V domains shown)
VH: B1 VH with G104H, V106H
VL: B1 VL
notes: hu15G7 VH Y34H, G104H, V106H; human Fc
B7: MYT8409 (antibody, V domains shown)
VH: B1 VH with H34Y, Y53H, G104H, V106H
VL: B1 VL
notes: hu15G7 VH Y53H, G104H, V106H; human Fc
B8: MYT8394 (antibody, V domains shown)
VH: B1 VH with F105H
VL: B1 VL
notes: hu15G7 VH Y34H, F105H; human Fc
B9: MYT8402 (antibody, V domains shown)
VH: B1 VH with Y53H, G104H
VL: B1 VL
notes: hu15G7 VH Y34H, Y53H, G104H; human Fc
B10: MYT8398 (antibody, V domains shown)
VH: B1 VH with H34Y, Y53H, V106H
VL: B1 VL
notes: hu15G7 VH Y53H, V106H; human Fc
B11: MYT8389 (antibody, V domains shown)
VH: B1 VH with H34Y, G104H
VL: B1 VL
notes: hu15G7 VH G104H; human Fc
B12: MYT8399 (antibody, V domains shown)
VH: B1 VH with H34Y, G104H, F105H
VL: B1 VL
notes: hu15G7 VH G104H, F105H; human Fc
B13: MYT8395 (antibody, V domains shown)
VH: B1 VH with V106H
VL: B1 VL
notes: hu15G7 VH Y34H, V106H; human Fc
B14: MYT8405 (antibody, V domains shown)
VH: B1 VH with G104H, F105H
VL: B1 VL
notes: hu15G7 VH Y34H, G104H, F105H; human Fc
B15: MYT8388 (antibody, V domains shown)
VH: B1 VH with H34Y, Y53H
VL: B1 VL
notes: hu15G7 VH Y53H; human Fc
B16: MYT8397 (antibody, V domains shown)
VH: B1 VH with H34Y, Y53H, F105H
VL: B1 VL
notes: hu15G7 VH Y53H, F105H; human Fc
B17: MYT8401 (antibody, V domains shown)
VH: B1 VH with H34Y, F105H, V106H
VL: B1 VL
notes: hu15G7 VH F105H, V106H; human Fc
B18: MYT8390 (antibody, V domains shown)
VH: B1 VH with H34Y, F105H
VL: B1 VL
notes: hu15G7 VH F105H; human Fc
B19: MYT8392 (antibody, V domains shown)
VH: B1 VH with Y53H
VL: B1 VL
notes: hu15G7 VH Y34H, Y53H; human Fc
B20: MYT8407 (antibody, V domains shown)
VH: B1 VH with F105H, V106H
VL: B1 VL
notes: hu15G7 VH Y34H, F105H, V106H; human Fc
B21: MYT8411 (antibody, V domains shown)
VH: B1 VH with H34Y, G104H, F105H, V106H
VL: B1 VL
notes: hu15G7 VH G104H, F105H, V106H; human Fc
B22: MYT9707 (antibody, V domains shown)
VH: EVQLVESGGGLVQPGGSLRLSCTASGFSFSSSHWICWVRQAPGKGLEWVGCIYAGSIGSTYYESWAKGRFTISRDTSKNTVYLQMNSLRAEDTAVYYCARAPNDIYNYYFNLWGQGTLVTVSS
VL: EIVMTQSPSTLSASVGDRVIITCQASENIYNYLAWYQQKPGKAPKLLIYYASTLASGVPSRFSGSGSGAEFTLTISSLQPDDFATYYCQSGYVSKSSTFGQGTKLTVL
notes: also called hu29F1 VH A63E
B23: MYT9714 (antibody, V domains shown)
VH: B22 VH with E63A, R100E
VL: B22 VL
notes: also called hu29F1 VH R100E
B24: MYT9712 (antibody, V domains shown)
VH: B22 VH with E63A, G68E
VL: B22 VL
notes: also called hu29F1 VH G68E
B25: MYT9710 (antibody, V domains shown)
VH: B22 VH with E63A, A66E
VL: B22 VL
notes: also called hu29F1 VH A66E
B26: MYT9713 (antibody, V domains shown)
VH: B22 VH with E63A, A99E
VL: B22 VL
notes: also called hu29F1 VH A99E
B27: MYT9708 (antibody, V domains shown)
VH: B22 VH with E63A, S64E
VL: B22 VL
notes: also called hu29F1 VH S64E
B28: MYT9711 (antibody, V domains shown)
VH: B22 VH with E63A, K67E
VL: B22 VL
notes: also called hu29F1 VH K67E

The binders below were run against T1, Human LRRC15 Protein, His Tag (Acro …) (assay: BLI; dissociation pH 7.4 black, pH 5.4 grey [D00009 FIG. 1G]).

| Binder | binding result |
| --- | --- |
| B1 | binds |
| B2 | no binding (tested: 50 nM LRRC15) |
| B3 | no binding (tested: 50 nM LRRC15) |
| B4 | no binding (tested: 50 nM LRRC15) |
| B5 | binds |
| B6 | no binding (tested: 50 nM LRRC15) |
| B7 | no binding (tested: 50 nM LRRC15) |
| B8 | no binding (tested: 50 nM LRRC15) |
| B9 | no binding (tested: 50 nM LRRC15) |
| B10 | no binding (tested: 50 nM LRRC15) |
| B11 | binds |
| B12 | binds |
| B13 | no binding (tested: 50 nM LRRC15) |
| B14 | binds |
| B15 | binds |
| B16 | no binding (tested: 50 nM LRRC15) |
| B17 | binds |
| B18 | binds |
| B19 | no binding (tested: 50 nM LRRC15) |
| B20 | no binding (tested: 50 nM LRRC15) |
| B21 | binds |

The binders below were run against T2, Human LRRC15 Protein, His Tag (Acro …) (assay: BLI; dissociation pH 7.4 black, pH 5.4 grey [1/2); D00025 FIG. 6B (1/2]).
Experimental: Desirable mutations were transferred to a humanized framework (humanized, MYT 8387-8411). After allowing for four days of protein expression, cell culture supernatants were collected, quantified by SDS-PAGE analysis, and the pH dependence of the variant was evaluated using biolayer interferometry (BLI) on an Octet RED 96e instrument. Briefly, cell culture supernatants were diluted based on qualitative expression level of the variant determined by visual examination of SDS-PAGE gels, 5 μL of cell culture supernatant was diluted into 195 μL of 1×PBST, pH 7.4 for high expressors, 25 μL of cell culture supernatant was diluted into 175 μL of 1×PBST, pH 7.4 for medium expressors and 100 μL of cell culture supernatant was diluted into 100 μL of 1×PBST, pH 7.4 for low expressors for loading onto the sensor tips. The resulting diluted supernatants were then captured on an anti-human Fc sensor (Forte Bio). A baseline was established using 1×PBST (50 mM Potassium Phosphate Buffer+150 mM NaCl+0.05% Tween 20) pH 7.4, and the […] was associated with 50 nM of LRRC15 (Human LRRC15 Protein, His Tag, Acro Biosystems) in 1×PBST pH 7.4 for 120 sec to generate an association curve. In the dissociation phase, the antibody-antigen complex on the sensor was exposed to 1×PBST pH 7.4 or pH 5.4, for 300 sec. Association and dissociation phase curves were examined for the starting ABPC antibody (with no substitutions) and each corresponding antibody variant at pH 5.4 and pH 7.4 to inform on two criteria: a) enhanced dissociation (i.e., higher koff values) at pH 5.4 due to histidine substitution compared to the starting ABPC, (with no substitutions), and b) reduced dissociation at pH 7.4 (i.e., lower koff values) compared to pH 5.4 in the antibody variant itself and with the starting ABPC (with no substitutions).
The methods of Examples 9-10 were applied to RabMAb clone 29F1 (rabbit VH SEQ ID NO: 572 and VL SEQ ID NO: 578; and humanized VH SEQ ID NO: 576 and VL SEQ ID NO: 582).

| Binder | binding result |
| --- | --- |
| B22 | binds |
| B23 | binds |
| B24 | binds |
| B25 | binds |
| B26 | binds |
| B27 | binds |
| B28 | binds |
